The target of this assay is Plasmodium falciparum Hsp70-x (PfHsp70-x), full-length construct aa 25-679 (P. falciparum) (UniProt K7NTP5).

Turning to “J-domain of P. falciparum Hsp40 cochaperone PFE0055c (PFE0055cJ), aa 77-148 (domain or fragment)”, the apparent dissociation constant from titrating the cochaperone in ATP hydrolysis assays (5 μM chaperone, single-site binding fit) turned out to be 3 µM.

Values taken from PMC6894070, “The Plasmodium falciparum Hsp70-x chaperone assists the heat stress response of the malaria parasite” (The FASEB Journal, 2019).
